B1: Protein argonaute-3 (Drosophila melanogaster (Fruit fly)), Q7PLK0 (parent)
chain: MSGRGNLLSLFNKNAGNMGKSISSKDHEIDSGLDFNNSESSGERLLSSHNIETDLITTLQHVNISVGRGRARLIDTLKTDDHTSNQFITSESKENITKKTKGPESEAIASENGLFFPDLIYGSKGSSVNIYCNYLKLTTDESKGVFNYEVRFFPPIDSVHLRIKYLNDHKDKLGGTKTFDGNTLYLPILLPNKMTVFISKAEDVELQIRILYKKKEEMRNCTQLYNILFDRVMKVLNYVKFDRKQFDPSRPKIIPLAKLEVWPGYVTAVDEYKGGLMLCCDVSHRILCQKTVLEMLVDLYQQNVEHYQESARKMLVGNIVLTRYNNRTYKINDICFDQNPTCQFEIKTGCTSYVEYYKQYHNINIKDVNQPLIYSIKKSRGIPAERENLQFCLIPELCYLTGLRDEVRSDNKLMREIATFTRVSPNQRQMALNKFYENVSNTPAAQEILNSWGLSLTNNSNKISGRQMDIEQIYFSKISVSAGRSAEFSKHAVTNEMLKVVHLSKWIIIHLRNYRQAATSLLDNMKQACESLGMNISNPTMISLDHDRIDAYIQALRRNITMNTQMVVCICHNRRDDRYAAIKKICCSEIPIPSQVINAKTLQNDLKIRSVVQKIVLQMNCKLGGSLWTVKIPFKNVMICGIDSYHDPSNRGNSVAAFVASINSSYSQWYSKAVVQTKREEIVNGLSASFEIALKMYRKRNGKLPTNIIIYRDGIGDGQLYTCLNYEIPQFEMVCGNRIKISYIVVQKRINTRIFSGSGIHLENPLPGTVVDQHITKSNMYDFFLVSQLVRQGTVTPTHYVVLRDDCNYGPDIIQKLSYKLCFLYYNWAGTVRIPACCMYAHKLAYLIGQSIQRDVAEALSEKLFYL
partner: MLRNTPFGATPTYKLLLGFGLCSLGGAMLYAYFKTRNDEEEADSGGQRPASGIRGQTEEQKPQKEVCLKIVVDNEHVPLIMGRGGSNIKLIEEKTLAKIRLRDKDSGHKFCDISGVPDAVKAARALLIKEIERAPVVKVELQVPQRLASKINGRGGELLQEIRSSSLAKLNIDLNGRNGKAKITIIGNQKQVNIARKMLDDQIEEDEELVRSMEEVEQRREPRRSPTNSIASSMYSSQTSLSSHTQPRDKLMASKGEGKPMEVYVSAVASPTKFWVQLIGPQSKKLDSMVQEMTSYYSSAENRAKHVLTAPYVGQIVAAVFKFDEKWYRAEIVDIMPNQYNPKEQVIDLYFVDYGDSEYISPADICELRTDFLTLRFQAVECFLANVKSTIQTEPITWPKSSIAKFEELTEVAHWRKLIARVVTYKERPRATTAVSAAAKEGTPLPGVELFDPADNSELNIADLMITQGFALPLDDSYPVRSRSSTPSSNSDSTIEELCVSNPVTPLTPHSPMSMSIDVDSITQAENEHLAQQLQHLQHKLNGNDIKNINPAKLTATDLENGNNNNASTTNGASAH
B2: Protein piwi (Drosophila melanogaster (Fruit fly)), Q9VKM1 (parent)
chain: MADDQGRGRRRPLNEDDSSTSRGSGDGPRVKVFRGSSSGDPRADPRIEASRERRALEEAPRREGGPTERKPWGDQYDYLNTRPAELVSKKGTDGVPVMLQTNFFRLKTKPEWRIVHYHVEFEPSIENPRVRMGVLSNHANLLGSGYLFDGLQLFTTRKFEQEITVLSGKSKLDIEYKISIKFVGFISCAEPRFLQVLNLILRRSMKGLNLELVGRNLFDPRAKIEIREFKMELWPGYETSIRQHEKDILLGTEITHKVMRTETIYDIMRRCSHNPARHQDEVRVNVLDLIVLTDYNNRTYRINDVDFGQTPKSTFSCKGRDISFVEYYLTKYNIRIRDHNQPLLISKNRDKALKTNASELVVLIPELCRVTGLNAEMRSNFQLMRAMSSYTRMNPKQRTDRLRAFNHRLQNTPESVKVLRDWNMELDKNVTEVQGRIIGQQNIVFHNGKVPAGENADWQRHFRDQRMLTTPSDGLDRWAVIAPQRNSHELRTLLDSLYRAASGMGLRIRSPQEFIIYDDRTGTYVRAMDDCVRSDPKLILCLVPNDNAERYSSIKKRGYVDRAVPTQVVTLKTTKNRSLMSIATKIAIQLNCKLGYTPWMIELPLSGLMTIGFDIAKSTRDRKRAYGALIASMDLQQNSTYFSTVTECSAFDVLANTLWPMIAKALRQYQHEHRKLPSRIVFYRDGVSSGSLKQLFEFEVKDIIEKLKTEYARVQLSPPQLAYIVVTRSMNTRFFLNGQNPPPGTIVDDVITLPERYDFYLVSQQVRQGTVSPTSYNVLYSSMGLSPEKMQKLTYKMCHLYYNWSGTTRVPAVCQYAKKLATLVGTNLHSIPQNALEKKFYYL
partner: B1 partner

Variants of: B1
Details: with tdrkh_drome papi

| effect of a mutation on the interaction | Variant |
| --- | --- |
| disrupting interaction strength | R68K;R70K;R72K |

Variants of: B2
Details: with tdrkh_drome papi

| effect of a mutation on the interaction | Variant |
| --- | --- |
| disrupting interaction strength | R7K;R9K |

Source: IntAct's records for PubMed 21447556
